As usually defined, the Kd is the concentration at which binding is half-saturated. Read a high Kd as weaker binding.

Square brackets hold non-standard residues; d marks the D form. Ends that are not written are not given here. * marks the point of attachment. His(π-(CH2)8Ph,τ-CH2CH2CH(OH)CH2OH) = His N(pi)-(CH2)8Ph and N(tau)-CH2CH2CH(OH)CH2OH; FITC = O=C1OC2(c3ccc(O)cc3Oc3cc(O)ccc32)c2ccc(NC(=S)*)cc21; His(π-(CH2)8Ph) = N[C@@H](Cc1cncn1CCCCCCCCc1ccccc1)C(=O)O; pT = C[C@@H](OP(=O)(O)O)[C@H](N)C(=O)O; PEG = not defined here

Holding throughout (test): fluorescence polarization
One assay deals with T1, 3c* (not fully specified (residue 3); reading uncertain; also: His N(tau)-hydroxyalkyl, not given here).
T1 chain: {FITC-PEG}-PLHS[pT]

For a further assay, the target named is T2, 2a* (not fully specified; reading uncertain).
T2 chain: {FITC-PEG}-PL[His(π-(CH2)8Ph)]S[pT]

In a further assay the target is T3, 3m* (not fully specified; reading uncertain).
T3 chain: {FITC-PEG}-PL[His(π-(CH2)8Ph,τ-CH2CH2CH(OH)CH2OH)]S[pT]

B1: Plk2 PBD PBD (protein)
chain: HLSSPAKNFFKKAAAALFGGKKDKARYIDTHNRVSKEDEDIYKLRHDLKKTSITQQPSKHRTDEELQPPTTTVARSGTPAVENKQQIGDAIRMIVRGTLGSCSSSSECLEDSTMGSVADTVARVLRGCLENMPEADCIPKEQLSTSFQWVTKWVDYSNKYGFGYQLSDHTVGVLFNNGAHMSLLPDKKTVHYYAELGQCSVFPATDAPEQFISQVTVLKYFSHYMEENLMDGGDLPSVTDIRRPRLYLLQWLKSDKALMMLFNDGTFQVNFYHDHTKIIICSQNEEYLLTYINEDRISTTFRLTTLLMSGCSSELKNRMEYALNMLLQRCN
As for B1, the values for the Kd with 3c*, in the assay with 2a* and with 3m* were 43 nM, 400 nM and 24 nM, respectively.

B2: Plk3 PBD PBD (protein)
chain: TPPNPARSLFAKVTKSLFGRKKKSKNHAQERDEVSGLVSGLMRTSVGHQDARPEAPAASGPAPVSLVETAPEDSSPRGTLASSGDGFEEGLTVATVVESALCALRNCIAFMPPAEQNPAPLAQPEPLVWVSKWVDYSNKFGFGYQLSSRRVAVLFNDGTHMALSANRKTVHYNPTSTKHFSFSVGAVPRALQPQLGILRYFASYMEQHLMKGGDLPSVEEVEVPAPPLLLQWVKTDQALLMLFSDGTVQVNFYGDHTKLILSGWEPLLVTFVARNRSACTYLASHLRQLGCSPDLRQRLRYALRLLRDRSPA
On to B2, for which the Kd was 240 nM in the assay with 3c*, 306 nM with 2a* and 62 nM with 3m*.

The values above are taken from PMC4895914 (2014).
